Experimental data taken from the supplement of paper PMC10126150.
± gives the standard deviation of the averaged measurements.

System: ATP
Assay: switch fluorescence ratio, 500 uM ATP over buffer (Cy3 cluster intensity, sum of 5 cycles each) (fold (ratio)); higher = stronger signal-on switching upon ATP binding; sequences stand for … in TCGTCGGCAGCGTCAGATGTGTATAAGAGACAGTTTTTTTTTTTTTTTTTTTTTTTTT…TC
Conditions: aptamer strand: ATP DNA aptamer (quencher-CACCTGGGGGAGTATTGCGGAGGAAGG + anchor), 100 nM annealed; ATP concentration: 500 uM
In short: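 Between each of five buffer/ATP cycles, the flow-cell was stripped with NaOH and re-annealed. Each cycle imaged Cy3-labelled switching-strand clusters, annealed to 100 nM quencher-labelled ATP aptamer on a modified Illumina MiSeq flow-cell, first in selection buffer and then after 15 min with 500 uM ATP at 22 °C. The fluorescence ratio is summed target-cycle over summed buffer-cycle Cy3 intensity per cluster, averaged per switch-domain sequence, with clusters outside 100-1000 RFU excluded.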
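Further: ATP exposure 15 min at 22 °C before imaging.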

| Sequence | switch fluorescence ratio |
| --- | --- |
| CTCTGGGGTC | 1.05 ± 0.048 |
| CTCTGGGTTG | 1.07 ± 0.13 |
| CTCTTACTTT | 0.9862 ± 0.0084 |
| CTCTTGTTTT | 0.988 ± 0.018 |
| CTCTTTACGG | 1 ± 0.04 |
| CTCTTTAGCG | 1.01 ± 0.025 |
| CTCTTTCGAT | 1.03 ± 0.03 |
| CTGAAAGGGC | 1.03 ± 0.066 |
| CTGAAGGAGG | 0.971 ± 0.037 |
| CTGAAGTTGT | 1.01 ± 0.032 |
| CTGAATGGGG | 0.971 ± 0.01 |
| CTGACGGCTT | 1.056 ± 0.0068 |
| CTGAGAAGAG | 0.993 ± 0.041 |
| CTGAGATCAG | 1.01 ± 0.026 |
| CTGAGCCGGA | 1.08 ± 0.16 |
| CTGAGGAGAC | 1.05 ± 0.042 |
| CTGAGGCTGG | 0.9933 ± 0.0021 |
| CTGAGGGGAT | 1.1 ± 0.047 |
| CTGAGGGGCT | 0.982 ± 0.02 |
| CTGAGTGTGG | 0.989 ± 0.028 |
| CTGAGTTTGA | 1 ± 0.013 |
| CTGAGTTTGG | 1.07 ± 0.061 |
| CTGATAAAGT | 0.9922 ± 0.0082 |
| CTGATCAATG | 1.1 ± 0.02 |
| CTGATCAGCA | 1.03 ± 0.04 |

| Sequence | switch fluorescence ratio |
| --- | --- |
| CTGATCAGTT | 1.02 ± 0.017 |
| CTGATGCGCG | 1 ± 0.016 |
| CTGATTATCT | 0.989 ± 0.02 |
| CTGCATGTGC | 2.14 ± 0.11 |
| CTGCGGATGG | 1.058 ± 0.0066 |
| CTGCGTAGGG | 1.04 ± 0.029 |
| CTGCGTCTAT | 1.08 ± 0.025 |
| CTGCTAGATG | 0.983 ± 0.051 |
| CTGCTAGCGG | 1.02 ± 0.065 |
| CTGCTGAGGG | 0.99 ± 0.013 |
| CTGCTTGTGA | 1.02 ± 0.026 |
| CTGGAATTCA | 1.02 ± 0.049 |
| CTGGAGGTTG | 0.998 ± 0.041 |
| CTGGCAGTGG | 1.05 ± 0.054 |
| CTGGCATGGG | 0.979 ± 0.014 |
| CTGGCGTATG | 0.997 ± 0.036 |
| CTGGCTGGCA | 0.995 ± 0.01 |
| CTGGGAAGAG | 1.01 ± 0.028 |
| CTGGGACTTG | 1 ± 0.013 |
| CTGGGAGATT | 1.02 ± 0.039 |
| CTGGGAGGGA | 0.991 ± 0.035 |
| CTGGGAGGTT | 0.97 ± 0.05 |
| CTGGGCACAT | 1.05 ± 0.015 |
| CTGGGCGTGC | 0.997 ± 0.03 |
| CTGGGGAGGT | 0.9946 ± 0.0044 |

| Sequence | switch fluorescence ratio |
| --- | --- |
| CTGGGGATTT | 1.02 ± 0.013 |
| CTGGGGGAAG | 0.985 ± 0.034 |
| CTGGGGGGGG | 1 ± 0.038 |
| CTGGGGGTCA | 1.04 ± 0.026 |
| CTGGGGGTGC | 1.06 ± 0.017 |
| CTGGGGGTTC | 1.01 ± 0.018 |
| CTGGGGTAGG | 1.04 ± 0.018 |
| CTGGGGTTTT | 0.991 ± 0.032 |
| CTGGGTAGGG | 1.008 ± 0.01 |
| CTGGGTCTGA | 1.02 ± 0.026 |
| CTGGGTGCAT | 1.14 ± 0.032 |
| CTGGGTGGCG | 1.01 ± 0.069 |
| CTGGGTTAGG | 0.973 ± 0.032 |
| CTGGGTTGCG | 0.958 ± 0.032 |
| CTGGTAGAGG | 0.979 ± 0.048 |
| CTGGTAGGGA | 1.06 ± 0.044 |
| CTGGTATGGA | 0.971 ± 0.065 |
| CTGGTATGGG | 1.01 ± 0.03 |
| CTGGTCCAGG | 1.12 ± 0.034 |
| CTGGTCTTGC | 1.04 ± 0.035 |
| CTGGTGTGGC | 0.982 ± 0.028 |
| CTGGTTCTTT | 0.9898 ± 0.0082 |
| CTGTAAATTT | 0.991 ± 0.03 |
| CTGTAACGTT | 1.015 ± 0.0015 |
| CTGTAAGGCG | 1.05 ± 0.025 |

| Sequence | switch fluorescence ratio |
| --- | --- |
| CTGTAATTGG | 1.006 ± 0.001 |
| CTGTACGGAT | 1.95 ± 1.7 |
| CTGTAGCTGG | 1.53 ± 0.05 |
| CTGTAGGGTT | 1.01 ± 0.034 |
| CTGTATTTCT | 1.03 ± 0.021 |
| CTGTCTTGA | 1 ± 0.038 |
| CTGTGAGGGC | 0.991 ± 0.037 |
| CTGTGAGTTA | 0.97 ± 0.038 |
| CTGTGCAGCG | 1.01 ± 0.019 |
| CTGTGGAAAG | 0.991 ± 0.018 |
| CTGTGGATGG | 1.01 ± 0.041 |
| CTGTGGGAAG | 0.995 ± 0.056 |
| CTGTGGTATT | 0.985 ± 0.018 |
| CTGTGGTTGG | 0.981 ± 0.011 |
| CTGTGTATGT | 1.02 ± 0.061 |
| CTGTGTGATG | 0.991 ± 0.017 |
| CTGTGTGCCT | 0.995 ± 0.07 |
| CTGTGTTCTT | 0.9864 ± 0.0065 |
| CTGTTAATAG | 1.12 ± 0.027 |
| CTGTTAGTTG | 0.993 ± 0.019 |
| CTGTTATGTG | 0.952 ± 0.015 |
| CTGTTCACGG | 1.017 ± 0.0092 |
| CTGTTCCTTT | 1.056 ± 0.0014 |
| CTGTTGAGGG | 1 ± 0.027 |
| CTGTTGGGCC | 0.9949 ± 0.0047 |

| Sequence | switch fluorescence ratio |
| --- | --- |
| CTGTTGGGTT | 0.997 ± 0.016 |
| CTGTTTATTT | 1.36 ± 0.54 |
| CTTAAAGGCC | 0.984 ± 0.026 |
| CTTAAAGTCG | 0.981 ± 0.0073 |
| CTTAAATCTG | 0.974 ± 0.084 |
| CTTAAATGAA | 1.02 ± 0.036 |
| CTTAAATTAA | 0.989 ± 0.051 |
| CTTAAATTCG | 0.987 ± 0.018 |
| CTTAACCTTC | 2.43 ± 0.31 |
| CTTAACGGGA | 0.99 ± 0.026 |
| CTTAACTTAG | 1.047 ± 0.0015 |
| CTTACAGGTT | 0.99 ± 0.036 |
| CTTACGGAGG | 1.01 ± 0.015 |
| CTTAGAATTG | 1.02 ± 0.012 |
| CTTAGATCTG | 1 ± 0.027 |
| CTTAGATGGT | 0.975 ± 0.015 |
| CTTAGATTTT | 0.988 ± 0.025 |
| CTTAGGAAAG | 0.98833 ± 0.00059 |
| CTTAGGCGGT | 1.038 ± 0.0062 |
| CTTAGGGCGG | 0.957 ± 0.027 |
| CTTAGGGTTG | 0.999 ± 0.013 |
| CTTAGTATAT | 1 ± 0.024 |
| CTTAGTGTTC | 0.992 ± 0.028 |
| CTTATAATTG | 0.9935 ± 0.00017 |
| CTTATACTGG | 1.02 ± 0.011 |

| Sequence | switch fluorescence ratio |
| --- | --- |
| CTTATAGGTG | 1.14 ± 0.059 |
| CTTATCTCTT | 1.02 ± 0.025 |
| CTTATGACAG | 0.988 ± 0.011 |
| CTTATGGACT | 0.991 ± 0.033 |
| CTTATTAACT | 0.9954 ± 0.0069 |
| CTTATTAAGC | 1.05 ± 0.011 |
| CTTATTGTAG | 0.964 ± 0.061 |
| CTTATTTCCG | 1.032 ± 0.0096 |
| CTTATTTGGG | 0.997 ± 0.031 |
| CTTCACACGT | 1.016 ± 0.01 |
| CTTCAGGGAA | 1.01 ± 0.032 |
| CTTCGGCCTT | 0.976 ± 0.02 |
| CTTCGGTTCT | 1.02 ± 0.028 |
| CTTCTAAGTC | 1.004 ± 0.0097 |
| CTTCTAGTCC | 1.03 ± 0.028 |
| CTTCTGTCGT | 1.034 ± 0.0018 |
| CTTCTTGGAG | 0.967 ± 0.026 |
| CTTGAAGATG | 0.973 ± 0.065 |
| CTTGAAGGGA | 0.995 ± 0.029 |
| CTTGAATCGT | 0.987 ± 0.013 |
| CTTGACTGTG | 1.03 ± 0.011 |
| CTTGAGACGG | 1.01 ± 0.017 |
| CTTGCCGGCG | 1.07 ± 0.03 |
| CTTGCGGCCT | 1.11 ± 0.15 |
| CTTGCGGGCG | 0.982 ± 0.012 |

| Sequence | switch fluorescence ratio |
| --- | --- |
| CTTGCGGGGA | 1.0408 ± 0.00045 |
| CTTGCTTTTT | 0.948 ± 0.0035 |
| CTTGGAATGT | 1.01 ± 0.029 |
| CTTGGAGGA | 1.024 ± 0.0093 |
| CTTGGAGGCG | 1.01 ± 0.036 |
| CTTGGAGTTA | 0.997 ± 0.025 |
| CTTGGATGGG | 0.9858 ± 0.0089 |
| CTTGGATGTC | 0.985 ± 0.03 |
| CTTGGGCATG | 0.988 ± 0.019 |
| CTTGGGGAGC | 0.982 ± 0.07 |
| CTTGGGGATG | 0.997 ± 0.042 |
| CTTGGGGCTA | 1.03 ± 0.088 |
| CTTGGGGCTC | 0.9457 ± 0.0082 |
| CTTGGGGGCG | 1.01 ± 0.056 |
| CTTGGGGGTC | 0.989 ± 0.014 |
| CTTGGTAATA | 1.062 ± 0.0066 |
| CTTGGTAGGG | 1.03 ± 0.051 |
| CTTGGTCCCG | 1.01 ± 0.011 |
| CTTGGTGACG | 1.09 ± 0.031 |
| CTTGGTGGGA | 1.04 ± 0.012 |
| CTTGGTGGTG | 0.995 ± 0.019 |
| CTTGGTTGCG | 0.999 ± 0.014 |
| CTTGGTTGCT | 0.997 ± 0.032 |
| CTTGGTTTAG | 1.01 ± 0.035 |
| CTTGTAACTT | 1.01 ± 0.032 |

| Sequence | switch fluorescence ratio |
| --- | --- |
| CTTGTAAGGT | 0.976 ± 0.022 |
| CTTGTCAAGT | 0.984 ± 0.071 |
| CTTGTCACCA | 0.988 ± 0.022 |
| CTTGTCGTGC | 0.995 ± 0.033 |
| CTTGTGACAC | 1.02 ± 0.033 |
| CTTGTGAGGG | 0.985 ± 0.037 |
| CTTGTGGCGG | 0.97 ± 0.0098 |
| CTTGTGTGTC | 0.999 ± 0.015 |
| CTTTAAAAAG | 1 ± 0.059 |
| CTTTAACGAG | 0.9976 ± 0.0043 |
| CTTTAACGGT | 1 ± 0.026 |
| CTTTAACGTT | 0.981 ± 0.0073 |
| CTTTAAGCTT | 0.9981 ± 0.0027 |
| CTTTAATGTT | 0.988 ± 0.037 |
| CTTTACGTCG | 0.982 ± 0.016 |
| CTTTACTAGG | 1.016 ± 0.0052 |
| CTTTAGGGTG | 1.06 ± 0.047 |
| CTTTAGTACG | 0.9734 ± 0.0012 |
| CTTTATATCT | 0.993 ± 0.03 |
| CTTTCCTATG | 1.07 ± 0.019 |
| CTTTCTGGGG | 0.991 ± 0.017 |
| CTTTGAATTG | 0.987 ± 0.023 |
| CTTTGAGACG | 0.978 ± 0.068 |
| CTTTGCTAAC | 2.21 ± 0.072 |
| CTTTGGAACT | 1.06 ± 0.065 |
